Test results from patent US20240140995A1 (ROCHE DIAGNOSTICS OPERATIONS, published 2024).

B1: E. coli IM-7, singly biotinylated (other)
chain: MELKNSISDYTEAEFVQLLKEIEKENVAATDDVLDVLLEHFVKITEHPDGTDLIYYPSDNRDDSPEGIVKEIKEWRAANGKPGFKQG
B2: E. coli ColE-7 (other)
chain: ESKRNKPGKATGKGKPVNNKWLNNAGKDLGSPVPDRIANKLRDKEFKSFDDFRKKFWEEVSKDPELSKQFSRNNNDRMKVGKAPKTRTQDVSGKRTSFELHHEKPISQNGGVYDMDNISVVTPKRHIDIHRGK

Legend:
E. coli ColE-7 [1] = biological target: B2; test: SPR Biacore T200, 37 C, single cycle kinetics
E. coli ColE-7 [2] = biological target: B2; test: SPR Biacore T200, 37 C, single cycle kinetics; biotinylated immunity protein on streptavidin sensor, colicin analyte 1.1-90 nM
[3] = biological target: GthIM (Geobacillus thermoglucosidasius immunity protein, C18A, engineered), singly biotinylated (Geobacillus thermoglucosidasius); test: as above

Binder | complex half-life t/2-diss (E. coli ColE-7 [1]) [h] | Kd (E. coli ColE-7 [2]) [nM] | MR (Molar Ratio, binding stoichiometry) (E. coli ColE-7 [2]) | koff (E. coli ColE-7 [2]) [s⁻¹] | kon (E. coli ColE-7 [2]) [M⁻¹ s⁻¹] | Kd [3] [nM] | koff [3] [s⁻¹] | kon [3] [M⁻¹ s⁻¹]
B1 | > 19.2 | < 0.0057 | 1.2 | < 1e-05 | 1.8e+06 | – | – | –
B2 | – | – | – | – | – | 13 | 0.1 | 1e+07
